These results are taken from patent US20220363763A1.

This assay has as its target human D1-D2 truncated LAG-3-ECD-human IgG1 fusion protein (human) (UniProt P18627). Kind of assay: ELISA on coated ΔD1-D2 huFc; EC50 table has no unit, x axis Ab(nM); fit value of a flat curve. On the technique in general: An ELISA detects its analyte on a solid surface through an enzyme-linked reagent.

human D1-D2 truncated LAG-3-ECD-human IgG1 fusion protein (human), sequence (P18627 253-450): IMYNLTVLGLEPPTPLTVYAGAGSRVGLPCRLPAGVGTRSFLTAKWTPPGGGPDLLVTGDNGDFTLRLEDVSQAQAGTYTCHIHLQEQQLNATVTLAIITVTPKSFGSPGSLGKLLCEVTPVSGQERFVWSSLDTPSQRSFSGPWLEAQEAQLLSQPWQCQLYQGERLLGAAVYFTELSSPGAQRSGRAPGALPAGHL

B1: 147H mouse monoclonal antibody (antibody, V domains shown)
VH: QVQLQQSGSELVRPGTSVKISCKASGYTFTNYWLGWIKQRPGHGLEWIGDIYPGGDYINYNEKFKGKATLSADTSSSTAYMQLSSLTSEDSAVYFCARPNLPGDYWGQGTSVTVSS
VL: DIVMTQAAFSNPVTLGTSASISCRSSKSLLHSNGITYLYWYLQKPGQSPQLLIYQVSNLASGVPGRFSGSGSGTDFTLRISRVEAEDVGVYYCAQNLELPWTFGGGTKLEIK
The molecule B1 registered an EC50 of 2.62 nM.

One may read the EC50 as the concentration that produces a half-maximal response. Lower therefore signals greater potency.
